From patent US20120128584A1 (ONCOTHERAPY SCIENCE, published 2012) come the findings set out here.

The assay addresses T1, placental cadherin (P-cadherin; CDH3) (human, UniProt P22223 108-829).
T1 construct: Native CDH3 on the surface of the cancer cell lines H358 and KLM-1; also called native CDH3 protein; CDH3 antigen
The assay can be described thus: hybridoma screening on cancer cells carrying native CDH3. From the text:
CDH3 gene encoded extracellular domain (SEQ ID NO: 3) was amplified from cDNA pool derived from cancer cells. The product was cloned into the pcDNA3.1 (Invitrogen, CA). To produce CDH3-specific antibody, mice were immunized subcutaneously with the domain expression vector (17.5 mcg/injection) every two weeks for a month. After the confirmation of the titer of antisera, spleenocytes were extracted from the mice and fused to myeloma cells to prepare hybridomas. We screened the hybridomas which can recognize native CDH3 antigen on the surface of the cancer cells. […] The hybridoma clone #6 was used to inject intraperitoneally into mice. The ascites was recovered after 2 to 3 weeks. Finally antibody was purified from the ascites using Protein A column (GE Healthcare, NJ).

T1 sequence (P22223 108-829 limits assumed): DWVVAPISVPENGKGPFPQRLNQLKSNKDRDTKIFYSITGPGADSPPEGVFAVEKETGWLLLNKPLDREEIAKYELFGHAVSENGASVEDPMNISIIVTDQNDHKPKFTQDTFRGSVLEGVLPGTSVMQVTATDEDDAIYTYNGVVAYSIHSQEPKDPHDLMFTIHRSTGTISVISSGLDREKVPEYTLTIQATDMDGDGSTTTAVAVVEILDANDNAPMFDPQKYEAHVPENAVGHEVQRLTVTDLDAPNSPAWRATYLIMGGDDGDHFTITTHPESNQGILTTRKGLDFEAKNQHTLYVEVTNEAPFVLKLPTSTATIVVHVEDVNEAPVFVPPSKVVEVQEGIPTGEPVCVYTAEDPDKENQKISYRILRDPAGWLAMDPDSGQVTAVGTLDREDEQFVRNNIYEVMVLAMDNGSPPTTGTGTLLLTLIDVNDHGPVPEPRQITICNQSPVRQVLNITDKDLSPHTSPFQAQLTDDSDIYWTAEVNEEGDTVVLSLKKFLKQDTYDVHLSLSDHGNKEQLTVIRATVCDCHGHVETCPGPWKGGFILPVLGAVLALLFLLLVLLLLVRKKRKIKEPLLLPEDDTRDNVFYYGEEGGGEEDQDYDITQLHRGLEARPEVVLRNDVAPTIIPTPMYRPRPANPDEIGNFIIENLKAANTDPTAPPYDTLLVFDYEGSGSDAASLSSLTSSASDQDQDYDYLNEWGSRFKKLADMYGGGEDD

B1: Anti-CDH3 mouse monoclonal antibody produced by hybridoma clone #6 (antibody, V domains shown)
VH: QVQLQQPGAELVKPGTSVKLSCKSSGYTFTSYWIHWVKQRPGHGLEWIGEIDPSDNYTYYNQNFKGKATLTIDKSSSTAYMQLNSLTSEDSAVFYCARSGYGNLFVYWGQGTLVTVSA
VL: QIVLTQSPAIMSSSPGEKVTMSCSATSSVTYMYWYQQKPGSSPKPWIFRTSNLASGVPTRFSGSGSGTSYSLTISSMEAEDAATYYCQHYHIYPRTFGGGTKL
notes: The VL as printed ends at 'TKL'
Turning to B1, the binding result is listed as “binds”.
